Reference: patent publication US20070185028A1, “Compositions and methods for treatment of protein misfolding and protein aggregation diseases” (priority 2004, published 2007)

Assays:
α-synuclein = target: T1, α-synuclein (Homo sapiens, UniProt P37840); experiment: α-synuclein fibrillation ThT assay; format: biochemical; settings: for change of ThT fluorescence of α-synuclein: concentration increased to 46 μM
T1 construct: purchased rPeptide
Description: The effect of the five αB crystallin peptides, ST, DR, HG, LT, and ER on as synuclein fibrillation was measured using the ThT fluorescence assay (FIG. 28). The formation and inhibition of α-synuclein fibrils was qualitatively verified by fluorescence and bright-field microscopy. The concentration of the peptides was varied relative to α-synuclein to establish a concentration curve. In addition, the effect of a control neuropeptide (AT1) with no α-synuclein fibril inhibition activity was measured and compared to the effect of the αB crystallin peptides on α-synuclein fibrillation. The ThT fluorescence of 46 μM α-synuclein alone incubated at 37° C. for 96 hrs, increased from ˜9,500 to ˜16,000 RFU. Addition of 9.2 μM αB crystallin peptides ST, DR, HG, LT, and ER decreased the ThT fluorescence of α-synuclein by 32-100%. When the concentration of the αB crystallin peptides was increased to 46 μM, the ThT fluorescence of α-synuclein decreased with the αB crystallin peptides, DR, HG, LT, and ER, while the ThT fluorescence increased with the ST peptide. […] The negative control peptide AT1 had no effect on α-synuclein fibrillation even at a concentration as high as 460 μM. All five αB crystallin peptides inhibited α-synuclein fibrillation at sub-stoichometric and stoichometric concentrations (9.2 μM and 46 μM).
The Thioflavin T (ThT) fluorescence of 46 μM α-synuclein in the presence of varying concentrations of αB crystallin peptides and controls was measured. […] When the concentration of the peptides was increased to […] (1:1::peptide:α-synuclein), the αB crystallin peptides DR, HG, LT and ER decreased the ThT fluorescence by 51-100%, while the ST peptide had no effect on ThT fluorescence. When the concentration of the peptides was increased further to […] (10:1::peptide:α-synuclein), the five αB crystallin peptides decreased the ThT fluorescence by 40-100%. […] The formation and inhibition of β2-microglobulin fibrils was verified microscopically.
α-synuclein fibrillation ThT assays were performed as described previously. Zhu et al., J Biol Chem 279:26846-57, 2004; Dedmon et al., J Biol Chem 280:14733-40, 2005. Peptides were dissolved to 2 mM in 0.25% DMSO and diluted accordingly, while α-synuclein was dissolved in 20 mM Tris-Cl, 100 mM NaCl, pH 7.4. For the 5:1::peptide: α-synuclein assay, 5 μL of 700 μM peptide or APS was mixed with 5 μL of 140 μM α-synuclein, 17 μt of 20 mM Tris-Cl, 100 mM NaCl, pH 7.4 and 3 μL of 1 mM ThT. For the 1:1::peptide:α-synuclein assay, 5 μL of 140 μM peptide was mixed with 5 μL of 140 μM α-synuclein, 17 μl of 20 mM Tris-Cl, 100 mM NaCl, pH 7.4 and 3 μL of 1 mM ThT. For the 1:5::peptide:α-synuclein assay, 5 μL of 28 μM peptide was mixed with 5 μL of 140 μM α-synuclein, and […] of 20 mM Tris-Cl, 100 mM NaCl, pH 7.4 and 3/L of 1 mM ThT. ThT fluorescence was measured using a Perkin Elmer Victor^3 V plate reader. Assays were performed in 384-well fluorescence plates in duplicates or triplicates. Samples were incubated at 37° C. for a total of 96 hours. ThT fluorescence was measured at 0, 24, 48, and 96 hours. The effect of the peptides and APS was calculated as percentage fibril formation relative to α-synuclein alone (100%) at the end of 96 hours.

β2-microglobulin (β2m) = target: T2, β2-microglobulin (β2m) (Homo sapiens, UniProt P61769); experiment: β2-microglobulin fibrillation ThT assay; format: biochemical; settings: five αB crystallin peptides and control
T2 construct: purchased MP Biomedical
Description: Addition of 5.8 μM αB crystallin peptides, ST, DR, LT, HG, and ER decreased the ThT fluorescence of β2m by 40-64%. When the concentration of the αB crystallin peptides was increased to 29 μM and 145 μM, no further decrease in ThT fluorescence was observed. The negative control peptide AT1 had no effect on β2m fibrillation even at a concentration as high as 290 μM. All five αB crystallin peptides inhibited β2m fibrillation at sub-stoichometric and stoichometric concentrations (5.8 μM and 29 μM).
The Thioflavin T (ThT) fluorescence of β2m in the presence of varying concentrations of αB crystallin peptides and controls was measured. […] When the concentration of the peptides was increased to 29 μM (1:1::peptide:β2m), the αB crystallin peptides decreased the ThT fluorescence by 35-65%. When the concentration of the peptides was increased further to 145 μM ([…]), the αB crystallin peptides decreased the ThT fluorescence by 13-27%. […] The formation and inhibition of β2-microglobulin fibrils was verified microscopically.
β2-microglobulin fibrillation ThT assays were performed as described previously. Raman et al., Biochem J 392:573-81, 2005; Ivanova et al., Proc Natl Acad Sci USA 101:10584-9, 2004. Peptides were dissolved to 2 mM in 0.25% DMSO and diluted accordingly, while β2-microglobulin was dissolved in 25 mM sodium acetate, 25 mM sodium phosphate, pH 2.4. For the 5:1::peptide:β2-microglobulin assay, 10 μL of 430 μM peptide was mixed with 10 μL of 86 μM β2-microglobulin, 7 μl of 25 mM sodium acetate, 25 mM sodium phosphate, pH 2.4 and 3 μL of 1 mM ThT. For the 1:1::peptide:β2-microglobulin assay, 10 μL of 86 μM peptide was mixed with 10 μL of 86 μM (2-microglobulin, 7 μl of 25 mM sodium acetate, 25 mM sodium phosphate, pH 2.4 and 3 μL of 1 mM ThT. For the 1:5::peptide:β2-microglobulin assay, 10 μL of 17.2 μM peptide was mixed with 10 μL of 86 μM β2-microglobulin, 7 μl of 25 mM sodium acetate, 25 mM sodium phosphate, pH 2.4 and 3 μL of 1 mM ThT. ThT fluorescence was measured using a Perkin Elmer Victor^3 V plate reader. Assays were performed in 384-well fluorescence plates in duplicates or triplicates. Samples were incubated at 37° C. ThT fluorescence was measured continuously for 180 minutes. The effect of the peptides and APS was calculated as percentage fibril formation relative to β2-microglobulin alone (100%) at the end of 180 minutes.

Sequence | change of ThT fluorescence of α-synuclein (α-synuclein) | decrease in ThT fluorescence of α-synuclein (α-synuclein; 16 μM (1:1::peptide:α-synuclein) as printed) | effect on α-synuclein fibril formation, overall (α-synuclein) | effect on β2-microglobulin fibril formation, overall (β2-microglobulin (β2m))
DRFSVNLDVKHFS | decreased |  | most effective inhibitor | 
ERTIPITRE | decreased |  |  | 
HGKHEERQDE | decreased |  | most effective inhibitor | most effective inhibitors

More lines, main results first:

change of ThT fluorescence of α-synuclein (α-synuclein) | decrease in ThT fluorescence of α-synuclein (α-synuclein; 16 μM (1:1::peptide:α-synuclein) as printed) | Sequence | effect on α-synuclein fibril formation, overall (α-synuclein) | effect on β2-microglobulin fibril formation, overall (β2-microglobulin (β2m))
decreased |  | LTITSSLSSDGV |  | most effective inhibitors
increased | no effect | STSLSPFYLRPPSFLRAP |  | 
